Consider 1 substance from patent US20140031293A1.

This experiment deals with purified human fibrinogen (human) (UniProt P02671). Kind of experiment: cell-based or functional assay.
Chain of UniProt P02671 (P02671 20-629 limits assumed, chain 1 of 3): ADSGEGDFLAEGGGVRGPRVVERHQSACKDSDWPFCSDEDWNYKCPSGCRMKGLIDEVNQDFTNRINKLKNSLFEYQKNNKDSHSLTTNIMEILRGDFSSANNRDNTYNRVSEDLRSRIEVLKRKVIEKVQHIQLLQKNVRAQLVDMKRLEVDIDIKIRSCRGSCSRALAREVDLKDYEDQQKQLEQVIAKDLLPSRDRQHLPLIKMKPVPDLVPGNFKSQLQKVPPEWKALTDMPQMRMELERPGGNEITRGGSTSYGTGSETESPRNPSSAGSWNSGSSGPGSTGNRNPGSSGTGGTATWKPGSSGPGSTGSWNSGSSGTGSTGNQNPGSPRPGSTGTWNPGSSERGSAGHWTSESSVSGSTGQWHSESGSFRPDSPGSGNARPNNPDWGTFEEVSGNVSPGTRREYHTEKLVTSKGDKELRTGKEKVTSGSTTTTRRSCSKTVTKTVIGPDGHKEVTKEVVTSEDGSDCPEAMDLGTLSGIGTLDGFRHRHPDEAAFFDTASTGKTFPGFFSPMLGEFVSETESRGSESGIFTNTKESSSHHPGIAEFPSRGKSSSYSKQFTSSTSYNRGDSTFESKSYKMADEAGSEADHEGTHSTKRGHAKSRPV
Chain of UniProt P02671 (P02675 31-491 limits assumed, chain 2 of 3, further chain): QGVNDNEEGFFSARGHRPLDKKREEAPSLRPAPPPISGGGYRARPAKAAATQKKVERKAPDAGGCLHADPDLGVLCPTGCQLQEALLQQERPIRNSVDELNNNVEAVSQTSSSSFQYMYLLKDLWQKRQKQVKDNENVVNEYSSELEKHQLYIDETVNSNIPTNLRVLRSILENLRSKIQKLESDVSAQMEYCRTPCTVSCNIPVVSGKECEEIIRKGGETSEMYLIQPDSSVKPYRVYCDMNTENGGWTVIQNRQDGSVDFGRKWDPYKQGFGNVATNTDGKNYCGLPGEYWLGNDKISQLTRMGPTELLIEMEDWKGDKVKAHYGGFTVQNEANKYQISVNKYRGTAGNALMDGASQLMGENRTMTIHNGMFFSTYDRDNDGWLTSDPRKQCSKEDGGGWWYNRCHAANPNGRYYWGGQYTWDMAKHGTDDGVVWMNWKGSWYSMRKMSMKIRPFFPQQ
Chain of UniProt P02671 (P02679 other isoform, or with tags, fused parts or gaps limits assumed, chain 3 of 3, further chain): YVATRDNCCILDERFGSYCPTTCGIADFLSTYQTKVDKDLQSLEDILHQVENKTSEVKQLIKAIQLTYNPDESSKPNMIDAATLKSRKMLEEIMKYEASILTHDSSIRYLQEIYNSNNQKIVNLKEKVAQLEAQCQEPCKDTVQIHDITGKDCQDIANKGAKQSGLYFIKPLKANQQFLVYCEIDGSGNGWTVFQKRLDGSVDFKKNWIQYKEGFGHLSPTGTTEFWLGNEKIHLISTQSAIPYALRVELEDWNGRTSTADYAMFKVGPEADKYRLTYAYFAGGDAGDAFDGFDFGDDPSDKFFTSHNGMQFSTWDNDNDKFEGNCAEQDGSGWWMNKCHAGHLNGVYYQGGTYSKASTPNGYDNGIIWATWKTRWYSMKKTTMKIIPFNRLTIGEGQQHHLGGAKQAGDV

Consider “PeproStat: fibrinogen-binding peptides of sequence GPRPG (GPRPG-PEG12-maleimide) conjugated to human serum albumin thiolated with 2-iminothiolane (from UniProt P02768 25-609)”, for which the Clotting activity (clot formation, Sigma Amelung KC4 coagulometer; 30 uL sample at 0.5 mg/ml added to 100 uL fibrinogen at 3 mg/ml) was less than 6 s.
